Source: KR20130126534A

Biological target: TNF-α
Test: ELISA, TNF-α coated 100 ng/well, protein titrated from 100 nM, anti-Human Fc-HRP

A Kd of 0.068 nM was found for “TNFR2 (단독) (from UniProt P20333 23-252) (Fc fusion)” in this work.
